test: soluble on expression in E. coli; label from the status in PepcDB or PDB records

Sequence | soluble on expression in E. coli
MTDLQVFEMNPQLNFPISDKTIYQMGFNSSAAQPSAANYVTESNSLTNHLQILDLLNPQTSSGSDDKKRQFFADLMTPHYEKQAEIEKKIDDLSEVVHQFIQSQQSLNKLILEKCLGRIPSPRMTSPHQPEDNSIDDMDPPVQEEIEEKIENDTFGQNEVTVNQQPINNPMPVYPVPISHEPANLHSPIRNRSISPEKMDTTGNSGAGMSVRDFLKNTMTVQKADEKILEEELERERDEAAQTVRYNKFRVRNRPKKYKRSAVTFTSSLEAATSSSSSTIPHQDQGPTFSTHSTIGNSSDTSQLMEQLDQSQNDSIDIEENVYQPIVVPCVQRAPELDLTLMQPVFSTASSYVLNSSALDPTTHQAQSSLSALTDSKFQTDPNNLWKAVDGVSQLLVDAPSLLESDLRSFTDHSHHSSFLPFVANHEPLHRSAFLPPQYHKDRRIHQQMDSHLSDTLRNL | not soluble
MLSVRTPLATIADQQQLQLSPLKRLTLADKENTPPTLSSTRVLASKAARRIFQDSAELESKAPTNPSVEDEPLLRENPRRFVVFPIEYHDIWQMYKKAEASFWTAEEVDLSKDIQHWEALKPDERHFISHVLAFFAASDGIVNENLVERFSQEVQVTEARCFYGFQIAMENIHSEMYSLLIDTYIKDPKEREYLFNAIETMPCVKKKADWALRWIGDKEATYGERVVAFAAVEGIFFSGSFASIFWLKKRGLMPGLTFSNELISRDEGLHCDFACLMFKHLVHKPAEQRVREIITNAVRIEQEFLTEALPVKLIGMNCTLMKQYIEFVADRLMLELGFNKIFRVENPFDFMENISLEGKTNFFEKRVGEYQRMGVMSNSTENSFTLDADF | soluble
MAHHHHHHMRVPSLPIIIDEFPALAGSRSHSGSGSGSELFFLTHFHTDHMKGLSSAWTAGLIITGTITRQLLLNKFEGLRGRVLGLPFWCRTPVLSAAGAAHSETDSTTATAVPVVHVTLLPAFHIPGSAMIYIETPSGVTYLHTGDFKYTEAAAQMSSLRTFFQSHRVDHLYLDDTWLHLGHTELKSWPALTESPLVGHRGVGIANSGIRVLSKLLDADQVEEAIEAIGRRMDYQRQLHAQWVQQQSQCDSNGTAEALTPSSSSSSASAELSDARLPFIVRVYLHNQFGKELLIQQLAARLRTRALIDDARYARLLTVVEALEEERDDLEAFEGADPARLDGAAPPLSAEELAWRASGGEAARYPYDLNCFVSCSQAQQQKQQQLWARWRYDRGAMSPQQPQPPADHSVKRSCGPPLIEVVRNRASIEPATLQAASAARGGTPYYGVVISGWARLQSQTHGPAASGQVWQVPTTLHSTPQEIVDFVALLRPLSVTPLHYRPSRGEVVMQRLGPYLRVPFVNNHDTGCGATTAATAGRDAVALRGGVVRWMPYLPAYLLLSQMGGSDSRSGLGTSTLLGMLGARDAAAVCDNGLDALEEKPPRGFRIRPAGLPLPSSKAAVAASRSGGEAPGGCDSHTAAITASYFFAPSPTTTTSLPAQGMADVSGKATNPTDTSVSSRVRADGLRISTLLPSWRLSHLTQSYLSTQQSGGKRERVDVEMDGQSMVAHRAERHAATATKIESGERAAKAANDHDKDCPAVLLSSSATTGLLSLSDIADNVLA | not soluble
MGSDKIHHHHHHMKLETIDYRSPDAAAQFVQSLRDTGFGVLSNHPIQQSLVEAIYKDWYEFFQSGAKEEFRFNPETQDGFFPADVSETAKGHSVKDIKEYYHVYPWGRIPESLRANILAYYDHANQLAAELLSWVEAHSPDEVKALFTEPLPNMIDGSHKTLLRVLHYPPMKGDEEPGAIRAAAHEDINLLTVLPAANEPGLQVKAKDGTWLDVPSDFGNIIINIGDMLQEASGGYFPSTSHRVINPEGMDKTKSRISLPLFLHPRPDVVLSERYTADSYLMERLRELGVI | not soluble
DEETKAFEALLSNIVKPVASDIQARTVVLTWSPPSSLINGETDESSVPELYGYEVLISSTGKDGKYKSVYVGEETNITLNDLKPAMDYHAKVQAEYNSIKGTPSEAEIFTTLSCEPDIPNPPRI | soluble
MSLKVWITGAGGMMGSHLAEMLLAAGHDVYATYCRPTIDPSDLQFNGAEVDITDWCSVYDSIATFRPDAVFHLAAQSYPAVSWARPVETLTTNMVGTAIVFEALRRVRPHAKIIVAGSSAEYGFVDPSEVPINERRELRPLHPYGVSKAATDMLAYQYHKSYGMHTVVARIFNCTGPRKVGDALSDFVRRCTWLEHHPEQSAIRVGNLKTKRTIVDVRDLNRALMLMLDKGEAGADYNVGGSIAYEMGDVLKQVIAACKRDDIVPEVDPALLRPTDEKIIYGDCSKLAAITGWQQEICLTQTIADMFDYWRSKSESAEGHHHHHH | soluble
ITEQTGQLVYDYNIEKDIADVAGNIEELTGFTSEELGNINLKLWTSRIHPEDLNRFLENHKKYLEPDRKSYRIEYRFRKKNGEYIYLEENWVSPEGDRKSSVKRVLGVIKNITERKQA | not soluble
MIDFACKEFKVEDVIKCALNLTKADLNVMKSFLNEPDRWIDTDALSKSLKLDVSTVQRSVKKLHEKEILQRSQQNLDGGGYVYIYKIYSKNQIRNIIQKIVQSWADRLGQELKEWENGGE | not soluble
SAKVSELYDVTWEEMRDKMRKWREENSRNSEQIVEVGEELINEYASKLGDDIWIIYEQVMIAALDYGRDDLALFCLQELRRQFPGSHRVKRLTGMRFEAMERYDDAIQLYDRILQEDPTNTAARKRKIAIRKAQGKNVEAIRELNEYLEQFVGDQEAWHELAELYINEHDYAKAAFCLEELMMTNPHNHLYCQQYAEVKYTQGGLENLELSRKYFAQALKLNNRNMRALFGLYMSASHIASNPKASAKTKKDNMKYASWAASQINRAYQFAGRSKKETKYSLKAVEDMLETLQITQS | not soluble
MGSDKIHHHHHHMIPLSRPDINEQDIERVVEVLKSGRLSLGEYTKRFGEMVAEYTGARFGWAVSSGTAALHLILESLDIDEGDLILVPSFTFIASVNVILMKRAIPVFVDVDERTLNVSPETLEEAVKRCLKGFKQGNIEIKGKPRLFMAVDVFGHPLDWDGILDVCQRYGIAVVEDSCEALGSEYKGRKVGTFGVAGAFAFYPNKQITTGEGGVVVTNDEKIHTAVKSMSNQGRGEGDEWLYHVRFGYNYRIDEMSAALGCSQMERIDEIVEKRAEAAERYSKMLKEFSWVKVPVVEDYVTKMSWFVYVVRLEGPDRNRVMRYMEEKGVQVRNYFYPVHFQPFYEKLFGSMKGLLPVTERESEKTLAIPFFTSITESEQKTVVEILREAVERVG | not soluble
MAHHHHHHMHSAALRRREEAAKSLAELEPEYAQIVADLPALEARKAAAEKEQEALWAELGMKQDESEAGLYESEFSDEATSCIRWCETGGCIGTGPRESHRDKSCSNVIDRDSSGYCECKTNDKKDEPEDDEEDVEPEAEGEGTEVRRGTVTYRFSSGHPRFTCMYVCDHSGEAGVDQQPEKLESFTILGELREASKSLERKKNRLEEVKGAMEAAKKLLSSPTITTEDLLRTLEKEEFTIDFQEYTYAIVMFDTVYQRDMGMTTGGNLLGLWKSFAENTYSVWAKDAHDLTQMIYDNGLKCWNGVVRNVEVHLVCGPENKLMTVEEPSMCNYRMVFETPAMCDD | soluble
MSLSSAQQWSYVRQLQREIRRSDVLDLPLEKLPVVVFDLETSGFYPDQGDRILSIGAVKVVGLTIQEEETFYSVVHTDTVPPENILELTGLSVEELEAAPPLTSVLESFYAFIRHSTLVAHHASHEKAFMSHVTWQTMKLPFEHRVIDTSFLTKIVAPQELVTLDDCCAYYSIPVQNRHHAFEDSLMTAKLWIAAIAAAREAGFETLRDIYVHLAHQREGHHHHHH | soluble
MMSLREKLIRELRRRGPIGIDQYEIEELMGFSKSTASEALSKLEAEGIIARRQISGRSKRVWLREFIPYRDPEMIRIGCLKSTEYAGFLSAAKDYCENKGIKAVIRFYNDATSILHDLSTGTLEFGLSPIFTETLFALSRHDIVIAGPVASGGSGIFENPASCENIVATSESTSMMLLSREFRRREGDVKITIFSDPIKASDGFRAGDFRYIAIWEPYASVIGANKLYDYSDLMDTFPCCGIAVSSGRSKDADLKSIIDAYRETDVEIRSDVIDMLSKATRCSKRAVMNSLGSYNFKLKYDMQTILRYMDFIGYPASEDAIKKVFLL | soluble
SALSCSLQGPPEGSIENLINTISRDVTTLQSYMQRRKEEYDCILKTCPVCGAVEEYAFSTVSPTATFEQLNPENRILYELQQINEQRRTLYEDIVSVQQKPECELCLLCALHESAFECGATPTANSFTSQVQSQHTQQQQTPVFSESVVPRPTILSNKTRVFVV | soluble
MMQMPKIGIIGGSGVYGVFEPKEVVKVHTPYGRPSAPIEIGEIEGVEVAFIPRHGKYHEFPPHQVPYRANIWALHELGVERVIAINAVGSLKEEYKPGDIVIIDQFIDFTKKREYTFYNGPKVAHVSMADPFCPELRKIFIETAKELNLPVHERGTYVCIEGPRFSTRAESRMFRQFADVIGMTLVPEVNLARELGMCYVNISTVTDYDVWAEKPVDAQEVLRVMKENEEKVQKLLKRAIPKIPEERKCGCADVLKTMFV | soluble
MSISGIGSYAASMLTPSRGSAGTSASAAATAADNTPATKSGSGGVQKTDFTQMTHKQLFDWVNSKIASGEMSFDESSTFISMTVSMPVDGSSMAPDDKQPVNFMQSVRDGMERALQTNDSDLFARLQTALHTMQRSQGEVRGVNMTV | not soluble
MIPTISDVSTVEEWRSVAKDIVQRDGDVNWRATIVDWPGLGYSARPKMDYDTDVMEKFVVDFMNSPESPMSQSGNDDLVIIGGGHAATLALRATQRGLLKPSAIAAVAPTWAGPLPIVFGRDSSMVSRYGMLRGTLRAPGVGWMMYNMLVSNEKSIESQYKSHVYADQTNVTDAIIQSRYELTKQKGSRYVPAAFLTGLLDPVSSREEFLQLFADLEGKLPVMVMSTKGAPKRSKAEMEALRGAKGVSKFVEVEGALLPQEEYPSLVAQELYNFLQETFAKC | not soluble
MNEMWLHRADLAESAINERHASRLWMLPRTNLAVVAWPPTAKERLFYRWHYWWQAHYLDCLIDAASRRTTKARKQRIRDTIVGIRLRNLGRLTKNNYYDDKSWLALALDRERRLNKRAKREYLRVLEGNIAAGQDDIQGVLPWRVGEHFFNVPTNGPAAIMLARNGEVEQARKLVDWIFDNLINDKGLVMDGLRMSMRGPEIVDPVYPYCQGVVIGACIEIAEALPFEESVQYLAHARAVIHAVAKEMATPEGVINAATGDGDGGLFKGILMRYLADAAVRLPEDGPANIATKKIAKRLVMASAESVWEHRLEVDGLPVFATDWCDDARLPHNYGVGGSALSDIVRVVRIDERDLSVQLSGWMLLEAAARVSLVDLEHHHHHH | soluble
ITLAVKVGMIQLCGCSGCHISLLDLHDKLLEVLPNLEIVYAPIIADPKEIPEGIDVFLVEGGIRNEHDEHLIHEIREKSKIVIAWGTCAAYGGIPGLGNLYKKEELLNYVYSTDSTENKGEIPSEEIPPLEEYVKPIKDFIKVDYTIPGCPPTPKMIADAIIALLNGEEPKLPTKIVC | not soluble
MDRLDRKILRILQEDSTLAVADLAKKVGLSTTPCWRRIQKMEEDGVIRRRVALLDPVKVNTKVTVFVSIRTASHSIEWLKRFSEVVSEFPEVVEFYRMSGDVDYLLRVVVPDIAAYDAFYKRMIAKIEIRDVSSAFAMEQIKYTTELPLDYMLLDNPKSGEE | soluble
MKGFQFKVIQEKLQGRQFINSDKIKPDHPQTIIKKTLLKEYQSKNFSCQEERDLFLEFTEKIVQNFHNINFNYLLKKFCKLPENYQSLKSQVKQIVQSENKANQQSCENLFNSLYDTEISYKQITNFLRQIIQNCVPNQLLGKKNFKVFLEKLYEFVQMKRFENQKVLDYICFMDVFDVEWFVDLKNQKFTQKRKYISDKRKILGDLIVFIINKIVIPVLRYNFYITEKHKEGSQIFYYRKPIWKLVSKLTIVKLEEENLEKVEEKL | soluble

Source: the DeepSol protein solubility set
